Read-outs that look alike come from different tables or passages of the source.
T1: human 4Ig-B7H3 (B7H3-4Ig-His) (human, UniProt Q5ZPR3 29-466)
T1 construct: Recombinant His-tagged protein immobilised on a CM5 chip; also called 41g-B7H3; human 4Ig-B7-H3 (dominant isoform); not shown: His tag
T1 sequence: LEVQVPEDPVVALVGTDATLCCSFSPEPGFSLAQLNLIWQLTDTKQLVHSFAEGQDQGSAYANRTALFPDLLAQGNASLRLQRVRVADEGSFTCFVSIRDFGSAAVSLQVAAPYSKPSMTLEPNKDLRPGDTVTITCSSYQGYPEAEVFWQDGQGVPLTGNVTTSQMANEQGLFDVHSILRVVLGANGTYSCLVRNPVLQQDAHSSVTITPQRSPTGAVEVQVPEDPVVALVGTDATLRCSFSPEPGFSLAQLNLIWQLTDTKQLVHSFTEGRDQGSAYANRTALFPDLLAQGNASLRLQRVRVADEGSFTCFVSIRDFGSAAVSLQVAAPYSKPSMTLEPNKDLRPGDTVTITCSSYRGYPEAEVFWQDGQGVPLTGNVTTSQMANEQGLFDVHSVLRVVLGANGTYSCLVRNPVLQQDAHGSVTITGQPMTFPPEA

T2: human 2Ig-B7H3 (B7H3-2Ig-His) (human, UniProt Q5ZPR3 29-466)
T2 construct: Recombinant His-tagged protein immobilised on a CM5 chip; also called 21g-B7H3; B7H3-21g-His; not shown: His tag
T2 sequence: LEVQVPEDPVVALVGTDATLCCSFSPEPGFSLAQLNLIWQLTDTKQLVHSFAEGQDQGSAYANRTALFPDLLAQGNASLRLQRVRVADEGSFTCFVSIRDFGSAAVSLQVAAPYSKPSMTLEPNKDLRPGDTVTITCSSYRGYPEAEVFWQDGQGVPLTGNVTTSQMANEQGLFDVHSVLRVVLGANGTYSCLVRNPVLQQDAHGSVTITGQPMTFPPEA


Legend:
[1] = molecular target: T1, human 4Ig-B7H3 (B7H3-4Ig-His); assay: SPR, Biacore T200, 4Ig-B7H3-His on CM5 chip, 1:1 fit
[2] = molecular target: T2, human 2Ig-B7H3 (B7H3-2Ig-His); assay: SPR, Biacore T200, 2Ig-B7H3-His on CM5 chip, 1:1 fit; * beyond fitting limits
[3] = molecular target: T2, human 2Ig-B7H3 (B7H3-2Ig-His); assay: SPR, Biacore T200, 2Ig-B7H3-His on CM5 chip, 1:1 fit
[4] = molecular target: T1, human 4Ig-B7H3 (B7H3-4Ig-His); assay: SPR, Biacore T200, 4Ig-B7H3-His on CM5 chip, 1:1 fit; remark: listed apart in the source
Description: (§1) Both human B7H3 41g and 21g proteins were dissolved in PBS (Phosphate-Buffered Saline) to make 0.1 mg/ml stock solution and stored in −80° C. B7-H3 proteins were immobilized onto the CM5 sensor chip using Amine Coupling Kit. Both proteins were diluted to 10 ug/ml with 10 mM Sodium acetate, pH 5.0. […] A blank immobilized surface was used as a control
(§2) Binding Assays: [0143] 1. Antibodies were diluted in HBS-EP buffer (10 mM HEPES, 150 mM NaCl, 3 mM EDTA, 0.05% Surfactant P20, pH 7.4) at varying concentrations (25-50-100-200-400 nM) prior to analysis. […] 2. Samples (60 ul) were injected over the sensor surface at a flow rate of 30 ul/min over 2 min. [0145] 3. Following completion of the association phase, dissociation was monitored in HBS-EP buffer for 10 min at the same flow rate. […] 4. At the end of each cycle, the surface was regenerated using 10 mM NaOH at a flow rate of 50 ul/min over 2×15 sec.

[5] = molecular target: T2, human 2Ig-B7H3 (B7H3-2Ig-His); assay: SPR, Biacore T200, 2Ig-B7H3-His on CM5 chip, 1:1 fit; remark: listed apart in the source
Description: as §1, §2
(§3) The data were analyzed by the 1:1 fitting model and default parameter setting for the rate constants using the Biacore T200 Evaluation Software, and the apparent association on rate constant (kon, ka), dissociation off rate constant (koff, kd) and equilibrium dissociation constant (KD=kd/ka) were calculated.

[6] = molecular target: T2, human 2Ig-B7H3 (B7H3-2Ig-His); assay: as above; remark: listed apart in the source
Description: as §1, §3

[7] = molecular target: T1, human 4Ig-B7H3 (B7H3-4Ig-His); assay: SPR, Biacore T200, 4Ig-B7H3-His on CM5 chip, 1:1 fit; remark: listed apart in the source
Description: as §1, §3

[8] = molecular target: T2, human 2Ig-B7H3 (B7H3-2Ig-His); assay: SPR, Biacore T200, 2Ig-B7H3-His on CM5 chip, 1:1 fit; DOTA conjugate, CAR 6.3, labeled with cold 175Lu
Description: as §1, §2

[9] = molecular target: T1, human 4Ig-B7H3 (B7H3-4Ig-His); assay: SPR
Description: as §1, §3

[10] = molecular target: T2, human 2Ig-B7H3 (B7H3-2Ig-His); assay: SPR
Description: as §1, §3

[11] = molecular target: T2, human 2Ig-B7H3 (B7H3-2Ig-His); assay: SPR, Biacore T200, 2Ig-B7H3-His on CM5 chip, 1:1 fit; CHX-A''-DTPA conjugate, CAR 6.1, labeled with cold 175Lu
Description: as §1, §2

[12] = molecular target: T2, human 2Ig-B7H3 (B7H3-2Ig-His); assay: SPR; CHX-A''-DTPA conjugate, CAR 1.4, unlabeled
[13] = molecular target: T1, human 4Ig-B7H3 (B7H3-4Ig-His); assay: SPR; remark: listed apart in the source
Description: as §1, §2

[14] = molecular target: T2, human 2Ig-B7H3 (B7H3-2Ig-His); assay: SPR; remark: listed apart in the source
Description: as §1, §2

[15] = molecular target: T2, human 2Ig-B7H3 (B7H3-2Ig-His); assay: SPR; CHX-A''-DTPA conjugate, CAR 0.6, unlabeled

Molecule	Kd [4] [nM]	t ½ [4] [h]	Kd [5] [nM]	T ½ [5] [h]	t ½ [6] [h]	Kd [7] [nM]	t ½ [7] [h]	also measured
127I-Humanized-8H9-antibody	–	–	–	–	–	–	–	Kd [1]: 0.24 nM; koff [1]: 2.68e-05 s⁻¹; kon [1]: 112000 M⁻¹ s⁻¹; t ½ [1]: 7.17 h; koff [2]: 7.66e-07 s⁻¹; Kd [3]: 0.00212 nM; kon [3]: 361000 M⁻¹ s⁻¹; t ½ [3]: 251 h
8H9 antibody conjugated with p-SCN-Bn-DOTA, CAR 0.8 (antibody, mouse IgG1, kappa, V domains shown, p-SCN-Bn-DOTA conjugated, CAR 0.8 per antibody; sites not stated, Chelator conjugate, not metal-labelled) VH: QVQLQQSGAELVKPGASVKLSCKASGYTFTNYDINWVRQRPEQGLEWIGWIFPGDGSTQYNEKFKGKATLTTDTSSSTAYMQLSRLTSEDSAVYFCARQTTATWFAYWGQGTLVTVSA VL: DIVMTQSPATLSVTPGDRVSLSCRASQSISDYLHWYQQKSHESPRLLIKYASQSISGIPSRFSGSGSGSDFTLSINSVEPEDVGVYYCQNGHSFPLTFGAGTKLELKR	5.76	1.67	0.166	39.2	–	–	–	–
8H9 antibody conjugated with p-SCN-Bn-DOTA, CAR 2.6 (antibody, mouse IgG1, kappa, V domains shown, p-SCN-Bn-DOTA conjugated, CAR 2.6 per antibody; sites not stated, Chelator conjugate, not metal-labelled) VH: QVQLQQSGAELVKPGASVKLSCKASGYTFTNYDINWVRQRPEQGLEWIGWIFPGDGSTQYNEKFKGKATLTTDTSSSTAYMQLSRLTSEDSAVYFCARQTTATWFAYWGQGTLVTVSA VL: DIVMTQSPATLSVTPGDRVSLSCRASQSISDYLHWYQQKSHESPRLLIKYASQSISGIPSRFSGSGSGSDFTLSINSVEPEDVGVYYCQNGHSFPLTFGAGTKLELKR	7.57	1.42	0.58	14	–	–	–	–
8H9 antibody conjugated with p-SCN-Bn-CHX-A″-DTPA, CAR 1.4 (antibody, mouse IgG1, kappa, V domains shown, p-SCN-Bn-CHX-A″-DTPA conjugated, CAR 1.4 per antibody; sites not stated, Chelator conjugate, not metal-labelled) VH: QVQLQQSGAELVKPGASVKLSCKASGYTFTNYDINWVRQRPEQGLEWIGWIFPGDGSTQYNEKFKGKATLTTDTSSSTAYMQLSRLTSEDSAVYFCARQTTATWFAYWGQGTLVTVSA VL: DIVMTQSPATLSVTPGDRVSLSCRASQSISDYLHWYQQKSHESPRLLIKYASQSISGIPSRFSGSGSGSDFTLSINSVEPEDVGVYYCQNGHSFPLTFGAGTKLELKR	10	1.09	1.93	3.94	–	–	–	Kd [12]: 1.93 nM; Kd [13]: 10 nM; t ½ [13]: 1.09 h; t ½ [14]: 3.94 h
8H9 antibody conjugated with p-SCN-Bn-DOTA, CAR 2.4 (antibody, mouse IgG1, kappa, V domains shown, p-SCN-Bn-DOTA conjugated, CAR 2.4 per antibody; sites not stated, Chelator conjugate, not metal-labelled) VH: QVQLQQSGAELVKPGASVKLSCKASGYTFTNYDINWVRQRPEQGLEWIGWIFPGDGSTQYNEKFKGKATLTTDTSSSTAYMQLSRLTSEDSAVYFCARQTTATWFAYWGQGTLVTVSA VL: DIVMTQSPATLSVTPGDRVSLSCRASQSISDYLHWYQQKSHESPRLLIKYASQSISGIPSRFSGSGSGSDFTLSINSVEPEDVGVYYCQNGHSFPLTFGAGTKLELKR	8.61	1.4	0.222	41.1	–	–	–	–
8H9 antibody conjugated with p-SCN-Bn-DOTA, CAR 7.5 (antibody, mouse IgG1, kappa, V domains shown, p-SCN-Bn-DOTA conjugated, CAR 7.5 per antibody; sites not stated, Chelator conjugate, not metal-labelled) VH: QVQLQQSGAELVKPGASVKLSCKASGYTFTNYDINWVRQRPEQGLEWIGWIFPGDGSTQYNEKFKGKATLTTDTSSSTAYMQLSRLTSEDSAVYFCARQTTATWFAYWGQGTLVTVSA VL: DIVMTQSPATLSVTPGDRVSLSCRASQSISDYLHWYQQKSHESPRLLIKYASQSISGIPSRFSGSGSGSDFTLSINSVEPEDVGVYYCQNGHSFPLTFGAGTKLELKR	14.6	1.03	1.71	6.58	–	–	–	–
8H9 antibody conjugated with p-SCN-Bn-CHX-A″-DTPA, CAR 0.6 (antibody, mouse IgG1, kappa, V domains shown, p-SCN-Bn-CHX-A″-DTPA conjugated, CAR 0.6 per antibody; sites not stated, Chelator conjugate, not metal-labelled; also called conj-CHX-A″-DTPA (CAR0.6)) VH: QVQLQQSGAELVKPGASVKLSCKASGYTFTNYDINWVRQRPEQGLEWIGWIFPGDGSTQYNEKFKGKATLTTDTSSSTAYMQLSRLTSEDSAVYFCARQTTATWFAYWGQGTLVTVSA VL: DIVMTQSPATLSVTPGDRVSLSCRASQSISDYLHWYQQKSHESPRLLIKYASQSISGIPSRFSGSGSGSDFTLSINSVEPEDVGVYYCQNGHSFPLTFGAGTKLELKR	10.1	0.883	1.22	5.72	–	–	–	Kd [15]: 1.22 nM; Kd [13]: 10.1 nM; t ½ [13]: 0.883 h; t ½ [14]: 5.72 h

More lines, main results first:

Kd [4] [nM]	t ½ [4] [h]	Kd [5] [nM]	T ½ [5] [h]	t ½ [6] [h]	Kd [7] [nM]	t ½ [7] [h]	Molecule	also measured
–	–	–	–	6.11	15.7	0.822	175Lu-DOTA-8H9-antibody (CAR2.6) (antibody, mouse IgG1, kappa, V domains shown, p-SCN-Bn-DOTA conjugated (CAR 2.6 per antibody), labelled with cold lutetium-175; sites not stated) VH: QVQLQQSGAELVKPGASVKLSCKASGYTFTNYDINWVRQRPEQGLEWIGWIFPGDGSTQYNEKFKGKATLTTDTSSSTAYMQLSRLTSEDSAVYFCARQTTATWFAYWGQGTLVTVSA VL: DIVMTQSPATLSVTPGDRVSLSCRASQSISDYLHWYQQKSHESPRLLIKYASQSISGIPSRFSGSGSGSDFTLSINSVEPEDVGVYYCQNGHSFPLTFGAGTKLELKR	Kd [6]: 1.74 nM
–	–	–	–	5.39	19.5	0.742	175Lu-DOTA-8H9-antibody (CAR6.3) (antibody, mouse IgG1, kappa, V domains shown, p-SCN-Bn-DOTA conjugated (CAR 6.3 per antibody), labelled with cold lutetium-175; sites not stated) VH: QVQLQQSGAELVKPGASVKLSCKASGYTFTNYDINWVRQRPEQGLEWIGWIFPGDGSTQYNEKFKGKATLTTDTSSSTAYMQLSRLTSEDSAVYFCARQTTATWFAYWGQGTLVTVSA VL: DIVMTQSPATLSVTPGDRVSLSCRASQSISDYLHWYQQKSHESPRLLIKYASQSISGIPSRFSGSGSGSDFTLSINSVEPEDVGVYYCQNGHSFPLTFGAGTKLELKR	Kd [8]: 2.34 nM
–	–	–	–	1.82	34	0.4	175Lu-DTPA-8H9-antibody (CAR6.1) (antibody, mouse IgG1, kappa, V domains shown, p-SCN-Bn-CHX-A″-DTPA conjugated (CAR 6.1 per antibody), labelled with cold lutetium-175; sites not stated) VH: QVQLQQSGAELVKPGASVKLSCKASGYTFTNYDINWVRQRPEQGLEWIGWIFPGDGSTQYNEKFKGKATLTTDTSSSTAYMQLSRLTSEDSAVYFCARQTTATWFAYWGQGTLVTVSA VL: DIVMTQSPATLSVTPGDRVSLSCRASQSISDYLHWYQQKSHESPRLLIKYASQSISGIPSRFSGSGSGSDFTLSINSVEPEDVGVYYCQNGHSFPLTFGAGTKLELKR	Kd [9]: 34 nM; t ½ [9]: 0.4 h; t ½ [10]: 1.82 h; Kd [11]: 7.21 nM
–	–	–	–	1.89	8.87	0.769	hu8H9-3.1 (antibody, V domains shown) VH: QVQLVQSGAEVVKPGASVKLSCKTSGYTFTNYDINWVRQRPGQGLEWIGWIFPGDDSTQYNEKFKGKATLTTDTSTSTAYMELSSLRSEDTAVYFCARQTTGTWFAYWGQGTLVTVSS VL: EIVMTQSPATLSVSPGERVTLSCRASQSISDYLYWYQQKSHESPRLLIKYASQSISGIPARFSGSGSGSEFTLTINSVEPEDVGVYYCQNGHSFPLTFGQGTKLELKR	Kd [6]: 2.22 nM; koff [6]: 0.000102 s⁻¹; kon [6]: 45900 M⁻¹ s⁻¹; koff [7]: 0.000251 s⁻¹; kon [7]: 28300 M⁻¹ s⁻¹
